{
  "source": "paper PMC5222524",
  "molecular_target": "Class C scavenger receptor of Marsupenaeus japonicus (MjSRC), native protein of hemocytes (Marsupenaeus japonicus (endogenous in hemocytes))",
  "experiment": "cross-linking; hemocytes collected 30 min after injection of WSSV or PBS, 5 mM BS3 at 4°C for 1 h in PBS pH 8.0, quenched with Tris-HCl; SDS-PAGE and western blotting with anti-MjSRC sera; oligomer size by molecular mass",
  "data": [
    {"substance": "Class C scavenger receptor of Marsupenaeus japonicus (MjSRC), native protein of hemocytes (from UniProt A0A1L2DC21 1-692)", "values": [
      {"measurement": "stoichiometry N", "result": 3}
    ]}
  ]
}
